Test results: patent US20110318377

T1: Tat ARM peptide (amino acids 45-58) monomethylated at K51
T1 chain: ISYGRKKRRQRRRP

T2: unmodified Tat ARM peptide (amino acids 45-58)
T2 chain: ISYGRKKRRQRRRP

T3: Tat ARM peptide (amino acids 45-58) K50, 51AA
T3 chain: ISYGRAARRQRRRP

T4: Tat ARM peptide (amino acids 45-58) K50A
T4 chain: ISYGRAKRRQRRRP

T5: Tat ARM peptide (amino acids 45-58) K51A
T5 chain: ISYGRKARRQRRRP

T6: Tat ARM peptide carrying an acetyl group at position 50
T6 chain: ISYGRKKRRQRRRP

B1: recombinant GST-p300 HAT (protein)
chain: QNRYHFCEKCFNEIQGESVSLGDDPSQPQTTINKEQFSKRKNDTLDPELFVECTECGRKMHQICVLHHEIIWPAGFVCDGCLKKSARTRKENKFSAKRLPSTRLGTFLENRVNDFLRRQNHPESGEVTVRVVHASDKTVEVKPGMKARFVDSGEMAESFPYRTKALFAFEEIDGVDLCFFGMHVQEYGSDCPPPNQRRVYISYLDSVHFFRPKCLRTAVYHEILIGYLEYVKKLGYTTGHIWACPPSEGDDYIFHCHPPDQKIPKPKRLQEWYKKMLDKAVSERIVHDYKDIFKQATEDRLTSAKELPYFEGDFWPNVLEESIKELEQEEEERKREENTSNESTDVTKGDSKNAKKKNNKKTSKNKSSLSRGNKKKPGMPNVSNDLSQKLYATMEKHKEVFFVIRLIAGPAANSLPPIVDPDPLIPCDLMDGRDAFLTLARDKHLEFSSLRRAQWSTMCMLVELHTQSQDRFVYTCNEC
B2: recombinant Set9 (Upstate) (protein)
chain: MDSDDEMVEEAVEGHLDDDGLPHGFCTVTYSSTDRFEGNFVHGEKNGRGKFFFFDGSTLEGYYVDDALQGQGVYTYEDGGVLQGTYVDGELNGPAQEYDTDGRLIFKGQYKDNIRHGVCWIYYPDGGSLVGEVNEDGEMTGEKIAYVYPDERTALYGKFIDGEMIEGKLATLMSTEEGRPHFELMPGNSVYHFDKSTSSCISTNALLPDPYESERVYVAESLISSAGEGLFSKVAVGPNTVMSFYNGVRITHQEVDSRDWALNGNTLSLDEETVIDVPEPYNHVSKYCASLGHKANHSFTPNCIYDMFVHPRFGPIKCIRTLRAVEADEELTVAYGYDHSPPGKSGPEAPEWYQVELKAFQATQQK

Key:
[1] = molecular target: T1, Tat ARM peptide (amino acids 45-58) …
[2] = molecular target: T2, unmodified Tat ARM peptide (amino acids …)
[3] = molecular target: T3, Tat ARM peptide (amino acids 45-58) …
[4] = molecular target: T4, Tat ARM peptide (amino acids 45-58) K50A
[5] = molecular target: T5, Tat ARM peptide (amino acids 45-58) K51A
[6] = molecular target: T6, Tat ARM peptide carrying an acetyl …
[7] = molecular target: full-length synthetic Tat protein (72 amino acids), unmodified
[8] = molecular target: histones purified from calf thymus
[9] = molecular target: recombinant GST-IκBα

| Protein | in vitro acetylation with 14C-AcCoA, autoradiography [1] | in vitro acetylation with 14C-AcCoA, autoradiography [2] | in vitro methylation with radiolabeled SAM [3] | in vitro methylation with radiolabeled SAM; MALDI-TOF [4] | in vitro methylation with radiolabeled SAM; MALDI-TOF [5] | in vitro methylation with radiolabeled SAM; MALDI-TOF [6] | in vitro methylation with radiolabeled SAM, autoradiography [7] | in vitro methylation with radiolabeled SAM, autoradiography [8] | in vitro methylation with radiolabeled SAM, autoradiography [9] | MALDI-TOF mass shift after methylation reaction [2] | radioactive in vitro methylation of short Tat peptides [2] |
| --- | --- | --- | --- | --- | --- | --- | --- | --- | --- | --- | --- |
| B1 | Acetylation by p300 occurred regardless of the methylation status of K51 | Acetylation by p300 occurred regardless of the methylation status of K51 | – | – | – | – | – | – | – | – | – |
| B2 | – | – | Methylation by Set9 was abrogated when K51 or both lysines were mutated | mutation of K50 alone had no effect | Methylation by Set9 was abrogated when K51 or both lysines were mutated | No methylation signal was observed | The Tat protein was methylated in response to increasing amounts of Set9 enzyme | Set9 also methylated purified histones, predominantly histone H3, a known substrate of Set9 | methylation by Set9 was not observed with another recombinant protein, GST-IκBα | a shift of 14 Da was detected in the methylated ARM peptide, corresponding to the addition of a single methyl group | Methylation was observed with one peptide (45-58 amino acids) corresponding to the arginine-rich motif (ARM) of Tat |
